Data published in the supplement of paper PMC9170038.

These sequences were tested on MS2 coat protein (assay: apparent KD of MS2 coat protein; higher = weaker reporter binding). Conditions: Eterna round: R107; input ligand: theophylline 2 mM.
Protocol: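 RNA-MaP round R107: designed RNA switches with theophylline, tryptophan, arginine or FMN aptamers are transcribed on-chip within common flanks. They are titrated with SNAP-549-labelled MS2 coat protein in RNA-MaP buffer (100 mM Tris pH 7.5, 80 mM KCl, 4 mM MgCl2), without ligand or with the indicated ligand. Median apparent KD per design.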

Sequence | apparent KD of MS2 coat protein [nM]
AUUCAUGAAAACAUGACAUAGGGAUCACUCCGAGGACCGGUACGGCCGCCACUCGCGAGGAGGCACAUGAGGAUCACCCAUGUUA [SS Tryp A #3] | 180
GGACUAACCAGAAGGAGCGACACGCAGAAACUGCAAUUUCCUCUACACGAGGAUCACCCGUGUCAGGUAGGUCGCUGGUUAGUCG | 65
GCACGACAUGAGGAUCACCCAUGUGCCGAUACCAGCCGGAUAUACGGCCCUUGGCAGCGGAGUGGAUCCGGAGGACCAUGGGUAA [Same State Theophylline A GF7] | 250
AUAACUGCCAAGGAUCAUGGGUGAGCAGAUACCAGCUAGGAAACUAGCCCUUGGCAGCUGCAACAUGAGGAUCACCCAUGUAAUA [(T)'-(M)'-(T1)-(T2)-(M1)-(M2)_Design8] | 119
AAAUAAAUACAUGAGGAUCACCCAUGUGAAGGAGCGCGCGUUAGCGCAGGUAGGUCGCACAUGAACUCCAAAGUGCGAAAGCACA [MAT - Exclusion Arginine A - Mod of Eli - D9] | 34.1
GUGACUUACGGGCGCCAUUUGUAAUAGGAAGGAGCGGCGAAAUAGCCAGGUAGGUCGCCUAUACAUGAGGAUCACCCAUGUCACC [Esatbileor] | 105

Same assay, conditions: Eterna round: R107; input ligand: tryptophan 2.4 mM

Sequence | apparent KD of MS2 coat protein [nM]
AGUUGACGAAAGUCAGCAACAUGAUCCGAAGGAGCGGGCGAAAGCCCAGGUAGGUCGCGGACAUGAGGAUCACCCAUGUCUCCUU [MAT - Exclusion Arginine A - Mod of Eli - D12] | 70.7
AGUGUUAUAACUGAUACCAGACCUUUGCUUAUACAUGAGGAUCACCCAUGUAAAAUGGCGGUCCCUUGGCAGCAGAGAAUACGCA [#09 Same State - Theophylline B] | 60.1
UAAAUACAUGAGGAUCACCCAUGUUUGGAUACCAGAUAUGACAUUAUCCCUUGGCAGCCAUUCGUUCCAAAUGCUAUUGUGAAGG [theeternabot_sameState_MS2_Theo_A_26] | 22
UACAUGAGGAUCACCCAUGUCGGCAGGGAAGGAGCGGCAAUAAAGCCAGGUAGGUCGCCCAUUAGUAUUUAUAAAUAAAUAUCCA [Same State - Arginine A] | 66.9
GGUGGCGUGACGGAUACCAGCCACCGCGGCAACGCAACAUGAGGAUCACCCAUGUUGGGUGGCCCUUGGCAGCUGUCGUGCGGCG [#1 Same State - Theophylline B Attempt #23 (HarryS)] | 78.1
UGAGAACAUGUCUUUAAGUUUACCUCUGAUACCAGAUUGAAAGGCAUCCCUUGGCAGCAGCAUACAUGAGGAUCACCCAUGUCCU [theeternabot_exclusion_MS2_Theo_A_12] | 88.9
CAAACAUGAGGAUCACCCAUGUAAUCAGAUACCAGUGACGAAAGUCACCCUUGGCAGCUGAGUACAUAUUGGCAGAGGUGUUUGA [EThA NP+V+V2 #7] | 64.4
UGUAUGUGAUCUGAUACCAGUCCAACUGGUAAAACAUGAGGAUCACCCAUGUAAAAUUGGGACCCUUGGCAGCAGAUCGCAUACU [ThBS 2] | 615
AUUUUCGUAGGUUAAAGUUUAGAAACUGAAGGAGCGUGGUAUUACACAGGUAGGUCGCAGAUUUUACAUGAGGAUCACCCAUGUU [JR_ExcArginiA_Sub011] | 17.7
GGGUACAUCGCGGCCGCCACUCAUGUAAAUACCUGAGGAUCACCCUGGUCGAUGGAGACAUCGAAGAGGACCGGGUGAUGUACCG | 44.6
ACAACAUGAGGCGAUACCAGAGGCAACAUGAGGAUCACCCAUGUUCACCCAUGUGAUCACCUCCCUUGGCAGCGCACAUGAGGAU [Same State - Theophylline B #1] | 12.3
AGCACAUGAGGAUCACCCAUGUGUGGGUACCGAGGACCGGUACGGCCGCCACUCGCAGGACAUGAGGAUCACCCAUGUGCCGCCG [SSTA DOUBLE!!! :-D #7] | 43.4
ACAUGAGGAUCACCCAUGUUCCUCAUUGAUACCAGUGAAUUUAGACGCCCUUGGCAGCGAGUUUUUUUAUAAGUUUUUUUUUUUU [6.J] | 874
AUAACAUGAGGAUCACCCAUGUAACCUGAAGGAGCGGACGAAAGUCCAGGUAGGUCGCAGGACUCCUUCAACAUGGGAGAGGGAG [SSArg-A #27 NuPack the Brourd] | 124
AAUAAGUACUUUGAUACCAGCCUGCCAUCAUGCUAAUUUACAUGAGGAUCACCCAUGUUAGGCCCUUGGCAGCAAAGUGCAAUAA [XTheo B #1] | 12.4
GGGCCUGUAAGCAGACCCACAGCGGGUGAUACCAGCAAUAAAACUUGCCCUUGGCAGCACACAGCUACAUGAGGAUCACCCAUGU [Rausis] | 82.4

Sequence | apparent KD of MS2 coat protein [nM]
AGCCUAUUACAUGAGGAUCACCCAUGUGAUACCAGUCAGGAAACUGACCCUUGGCAGCGCAUGAGGAUCACCCAUGCGCUAGGCA [Omei Theo A Exc A v5] | 10
AGAGUCUAGUCGGCCGCCACUCAUGUCCAAAGGACAUGAGGAUCACCCAUGUACCUAAGGUACAUGAGGACCGGGACUGGACUCA [Omei Tryp B SS C v5] | 7.92
UUGAACAUGAGGAUCACCCAUGUGGAUGAUACCAGCUAAAACAUAAGCCCUUGGCAGCAUUAAAAUGAAAUAUCGAAAAGGAAAG [theeternabot_sameState_MS2_Theo_A_1] | 127
UUUUUCGCGGGUGAUACCAGCAGAGUUGUACUGGUCUGGUACAUGAGGAUCACCCAUGUUUGCCCUUGGCAGCGCUCGGGAGAAG [#23 Exclusion-TheophyllineB] | 24.1
UCACAUGAGGAUCACCCAUGUACAACUGAAGGAGCGAGACAAAACUCAGGUAGGUCGCAGAAUAAACAAUAGCAUACGACAUGGG [Exclusion Arginine A GF 19] | 27.7
GGUGGAGGCGUGGGACUUGUCUGAACGGAUACCAGCCACAUCACGGGCCCUUGGCAGCUGUACAUGAGGAUCACCCAUGUCGGUC [Atestevete] | 34.8
UAUCCACAUGAGGAUCACCCAUGUAGGGAAGGAGCGGUGGUUGCACCAGGUAGGUCGCCUUGCUGAGGAUAACCGGUGGAAUCGU [Exclusion - Arginine A (Freestyle 28)] | 31.1
AUUCAUGAAAACAUGACAUAGGGAUCACUCCGAGGACCGGUACGGCCGCCACUCGCGAGGAGGCACAUGAGGAUCACCCAUGUUA [SS Tryp A #3] | 108
GGACUAACCAGAAGGAGCGACACGCAGAAACUGCAAUUUCCUCUACACGAGGAUCACCCGUGUCAGGUAGGUCGCUGGUUAGUCG | 54
GAUGGAAUAAGAGAUACCAGACACAAUUUAGCAUGUAUAUACAUGAGGAUCACCCAUGUAGUCCCUUGGCAGCUCUGGUUAGUGU [theeternabot_exclusion_MS2_Theo_B_48] | 20.8
GCACGACAUGAGGAUCACCCAUGUGCCGAUACCAGCCGGAUAUACGGCCCUUGGCAGCGGAGUGGAUCCGGAGGACCAUGGGUAA [Same State Theophylline A GF7] | 92.5
AUAACUGCCAAGGAUCAUGGGUGAGCAGAUACCAGCUAGGAAACUAGCCCUUGGCAGCUGCAACAUGAGGAUCACCCAUGUAAUA [(T)'-(M)'-(T1)-(T2)-(M1)-(M2)_Design8] | 90.4
AAAUAAAUACAUGAGGAUCACCCAUGUGAAGGAGCGCGCGUUAGCGCAGGUAGGUCGCACAUGAACUCCAAAGUGCGAAAGCACA [MAT - Exclusion Arginine A - Mod of Eli - D9] | 20.9
AAUGAACAUGAGGAUCACCCAUGUCGUGAUACCAGCCGUAAGAGUGGCCCUUGGCAGCGCCAUGAGGACAACAACAUACAUGAGG [Same State Theophylline A] | 24.8
GUGACUUACGGGCGCCAUUUGUAAUAGGAAGGAGCGGCGAAAUAGCCAGGUAGGUCGCCUAUACAUGAGGAUCACCCAUGUCACC [Esatbileor] | 77.8
